# Test results from patent US12428627B2, “Mutant p-hydroxyphenylpyruvate dioxygenase, and coding nucleic acid and use thereof” (Qingdao Kingagroot Chemical Compound Co., Ltd., priority 2018, dated 2025).
# What was measured:
# transgenic rice = assay: Herbicide resistance of transgenic rice (T0, T1 generation) sprayed with shuangzuocaotong; format: in vivo
# Source text: • 1. Construction of overexpression vector • 1) Primers: primers were designed according to the selected restriction sites and the nucleotide sequence of the gene itself to amplify the three-site mutant HPPD (H141R/G342D/D370N) (OsHPPD3M). The designed primers were synthesized by Beijing Qingke Biotechnology Co., Ltd.: HPPD-F, […] ATGCCTCCCACT CCCACCC, HPPD-R, […] GGC. • 2) PCR amplification: the gene of interest was amplified by using the synthesized primer and Q5 DNA polymerase (NEB, New England Biolabs, Boston, USA). The amplified product was assayed by agarose gel electrophoresis, and the product was recovered according to operational instructions of the TIANquick Midi Purification kit. After the completion of the recovery, the concentration of extracted DNA was determined by Nanodrop. • 3) Construction of a rice overexpression vector: the rice overexpression vector pCAMBIA1301-OsHPPD3M was constructed with the recovered HPPD fragments and plasmid pCAMBIA1301 digested by KpnI and HindIII by using the HB-in Fusions™ seamless cloning kit of HanBio Biotechnology Co., Ltd., (Shanghai), and then transformed into the competent E. coli DH5α to obtain a positive clone; the positive clone was transformed into Agrobacterium after sequencing and restriction endonuclease digestion. • 2. […]
# [1] = system: Huaidao No. 5 rice seedlings; assay: Gene-edited rice seedlings (base editing / homologous replacement of HPPD gene) on medium containing tembotrione; format: in vivo; details: medium containing 0.4 μM tembotrione
# Experimental: The calli of Huaidao No. 5 (at least 3000 callis) were infected according to the aforesaid method for infecting rice callis with Agrobacterium. After being infected with Agrobacterium, the infected calli were transferred to a 50 mg/L hyg screening medium for screening culture. After three rounds (15 days×3) of screening, the blond calli with good growth state were picked out to differentiate in a differentiation medium, and 0.2 μM tembotrione was added during the differentiation process for screening. After for 3-4 weeks, about 1,500 seedlings with around 1 cm were obtained. As to the about 1,500 differentiated seedlings, the vast majority of which had been bleached, and only 4 seedlings remained normal green. The 4 seedlings were transplanted to a rooting medium containing 0.4 μM tembotrione and cultivated for 2 weeks, wherein two seedlings had been bleached, while the other two seedlings remained green (FIG. 14A). A small number of leaves were used to extract genomic DNA by CTAB method. PCR was carried out by using the primers oshppd54F: TTCCACCACGTCGAGCTC and Oshppd356R: […]. The amplified product was detected by 1% agarose electrophoresis and sequenced by Sanger sequencing method. […]
molecule,measurement,setting,value
"H141R/G342D/D370N: three-site mutant rice HPPD (OsHPPD3M) (protein, listed as Oryza sativa, The amino acid sequence of Wild-Type rice HPPD protein (OsHPPD _WT)) MPPTPTPTATTGAVSAAAAAGENAGFRLVGHRRFVRANPRSDRFQALAFHHVELWCADAASAAGRFAFALGAPLAARSDLSTGNSAHASLLLRSASVAFLFTAPYGGDHGVGADAATTASIPSFSPGAARRFAADHGLAVRAVALRVADAADAFRASVAAGARPAFQPADLGGGFGLAEVELYGDVVLRFVSHPDGADAPFLPGFEGVSNPGAVDYGLRRFDHVVGNVPELAPVAAYISGFTGFHEFAEFTAEDVGTAESGLNSVVLANNAETVLLPLNEPVHGTKRRSQIQTYLDHHGGPGVQHIALASDDVLGTLREMRARSAMGGFEFLAPPPPNYYDDVRRRAGDVLSEEQINECQELGVLVDRDNQGVLLQIFTKPVGDRPTFFLEMIQRIGCMEKDESGQEYQKGGCGGFGKGNFSELFKSIEEYEKSLEAKQAPTVQGS","shuangzuocaotong rate tolerated, T0 generation plants","transgenic rice; T0 plants expressing the mutant, spraying",8-16 grams active ingredient per mu
same,"shuangzuocaotong rate tolerated, T1 generation plants","transgenic rice; T1 plants expressing the mutant, spraying",32-64 grams active ingredient per mu
same,resistance multiple of transgenic rice to HPPD-inhibiting herbicide,"transgenic rice; overexpression, field rate of shuangzuocaotong 4 g a.i./mu",at least 4
same,state of successfully edited seedlings,[1],remain green
